# Results: patent US20030064061A1, “Bcr-Abl oligomerization domain polypeptides and uses therefor” (Whitehead Institute for Biomedical Research, priority 2001, published 2003)
# T1: Bcr-Abl (Homo sapiens, UniProt P00519+P11274)
# T1 construct: c-Abl portion (ABL1, fusion partner)
# T1 sequence (P11274 1-426 limits assumed): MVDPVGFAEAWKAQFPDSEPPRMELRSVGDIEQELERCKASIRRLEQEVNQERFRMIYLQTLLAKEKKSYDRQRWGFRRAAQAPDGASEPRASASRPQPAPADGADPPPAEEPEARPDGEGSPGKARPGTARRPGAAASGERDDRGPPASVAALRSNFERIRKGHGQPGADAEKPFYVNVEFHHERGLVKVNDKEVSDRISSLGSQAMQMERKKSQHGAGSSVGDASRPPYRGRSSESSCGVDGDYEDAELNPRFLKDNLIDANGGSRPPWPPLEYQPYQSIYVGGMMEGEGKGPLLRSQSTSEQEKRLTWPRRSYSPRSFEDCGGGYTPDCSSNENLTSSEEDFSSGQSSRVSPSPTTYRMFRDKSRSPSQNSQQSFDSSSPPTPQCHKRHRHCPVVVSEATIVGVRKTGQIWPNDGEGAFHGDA
# What was measured:
# [1] = Solubility in physiological buffers; type: physicochemical
# [2] = Circular dichroism thermal denaturation; type: physicochemical; details: stable α-helical structure, PBS pH 7.4, heated from 0-98° C.
# Procedure: Circular dichroism experiments were performed on an Aviv 62A DS circular dichroism spectrometer. Measurements from […] were performed in a 10 μM solution of protein sample in PBS (50 mM Na phosphate, 150 mM NaCl, pH 7.4) in a 1-mm path-length cuvette. Thermal denaturation was performed in a 10 mm path-length cuvette and samples were heated from 0-98° C., with equilibration times of 2 minutes and an averaging time of 1 minute. Protein concentrations were determined by absorbance at 280 nm in 20 mM phosphate-buffered 6M guanidine-hydrochloride (pH 6.5) (H. Edelhoch, Biochemistry 6, 1948-54 (1967)).
# [3] = target: Bcr1-72C38A (Bcr-Abl oligomerization domain, residues 1-72 of human Bcr, Cys38 mutated to Ala), monomer chain (human); test: X-ray crystal structure, interface analysis
# [4] = target: Bcr1-72C38A (Bcr-Abl oligomerization domain, residues 1-72 of human Bcr, Cys38 mutated to Ala), monomer chain (human); test: X-ray crystal structure, buried surface
# [5] = target: Bcr1-72C38A dimer (domain-swapped antiparallel coiled-coil dimer seen in the crystal) (human); test: X-ray crystal structure, buried surface
# [6] = tested on: Bcr-Abl transformation of Rat-1 fibroblasts; test: Rat-1 focus-formation assay; type: cell-based; details: Rat-1 fibroblasts cotransfected with MIG-P210 and increasing doses of plasmid B74; foci counted after 3 weeks
# Procedure: FIG. 5 is a graphic representation of results of a Rat-1 focus-formation assay. Data shown are the average of three dishes and are representative of four independent experiments. Error bars indicate the standard deviation of foci numbers between the experiments.
# Whether the Bcr-Abl oligomerization domain inhibits full-length Bcr-Abl oligomerization in a dominant-negative manner was assessed. […] The total number of transformed foci was quantified after 3 weeks. Transected cultures were stained with 0.4% crystal violet to better visualize transformed foci.
# For expression in mammalian cells, Bcr1-74 fragments were PCR amplified from pMBP/Bcr1-74 (with the optimal E. coli codons) as mentioned above, and inserted into the retroviral expression vector pMX-IRES-GFP (X. Liu et al., Anal Biochem 280, 20-28 (2000)) using BamHI and NotI sites. The resulting plasmid was denoted p74-IES-GFP (B74). Although it has been reported that the Bcr oligomerization domain as contained in residues 1-71 (SEQ ID NO: 19; SEQ ID NO: 20) of the Bcr protein cannot be stably expressed in mammalian cells (C. L. Sawyers, N Engl J Med 340, 1330-40 (1999)), a fair amount of Bcr1-74 (SEQ ID NO: 7) protein was detected by Western blotting when B74 was expressed in vivo. It is possible that use of E. coli-optimized codons improved expression in this domain. […] The total number of transformed foci was counted after 3 weeks.
# [7] = target: T1, Bcr-Abl; details: literature reports (Guo 1998; Wu 1999); cited from earlier work
molecule,measurement,setting,value
Ac-DIEQELERCKASIRRLEQEVNQERFRMIYLQTLLAK-NH2 [Bcr30-65],solubility in physiological buffers,[1],poor solubility
same,midpoint of thermal denaturation (Tm),[2],60 °C
"Bcr1-72C38A (Bcr-Abl oligomerization domain, residues 1-72 of human Bcr, Cys38 mutated to Ala), monomer chain (protein, UniProt P11274 1-72 with C38A, looked up, oligomerization domain residues 1-72 selenomethionine form also used) MVDPVGFAEAWKAQFPDSEPPRMELRSVGDIEQELERAKASIRRLEQEVNQERFRMIYLQTLLAKEKKSYDR",hydrogen bonds in the dimer interface (hydrogen bonds),[3],3
same,salt bridges in the dimer interface,[3],7 salt bridges
same,van der Waals contacts in the dimer interface (radius cutoff 4 Å),[3],217 contacts
same,solvent-accessible surface buried upon dimer formation,[4],4200 Å^2
"Bcr1-72C38A dimer (domain-swapped antiparallel coiled-coil dimer seen in the crystal) (protein, UniProt P11274 1-72 with C38A, looked up, oligomerization domain residues 1-72, homodimer) MVDPVGFAEAWKAQFPDSEPPRMELRSVGDIEQELERAKASIRRLEQEVNQERFRMIYLQTLLAKEKKSYDR",solvent-accessible surface buried upon association of two dimers,[5],3400 Å^2
"Bcr1-74: Residues 1-74 of human Bcr; expressed in Rat-1 cells from retroviral plasmid B74 (p74-IRES-GFP) (protein, UniProt P11274 1-74, looked up, fragment) MVDPVGFAEAWKAQFPDSEPPRMELRSVGDIEQELERCKASIRRLEQEVNQERFRMIYLQTLLAKEKKSYDRQR",transforming potential of Bcr-Abl (number of transformed foci),[6],inhibited the transforming potential of Bcr-Abl
"N-terminal 160 amino acids of Bcr: N-terminal 160 amino acids of Bcr, which contain the oligomerization domain (literature) (protein, UniProt P11274 1-160, looked up, fragment) MVDPVGFAEAWKAQFPDSEPPRMELRSVGDIEQELERCKASIRRLEQEVNQERFRMIYLQTLLAKEKKSYDRQRWGFRRAAQAPDGASEPRASASRPQPAPADGADPPPAEEPEARPDGEGSPGKARPGTARRPGAAASGERDDRGPPASVAALRSNFER",Bcr-Abl transformation,[7],inhibit Bcr-Abl transformation
"full-length Bcr: Full-length human Bcr protein, 1271 amino acids (literature) (protein, UniProt P11274 1-1271, looked up, full-length) MVDPVGFAEAWKAQFPDSEPPRMELRSVGDIEQELERCKASIRRLEQEVNQERFRMIYLQTLLAKEKKSYDRQRWGFRRAAQAPDGASEPRASASRPQPAPADGADPPPAEEPEARPDGEGSPGKARPGTARRPGAAASGERDDRGPPASVAALRSNFERIRKGHGQPGADAEKPFYVNVEFHHERGLVKVNDKEVSDRISSLGSQAMQMERKKSQHGAGSSVGDASRPPYRGRSSESSCGVDGDYEDAELNPRFLKDNLIDANGGSRPPWPPLEYQPYQSIYVGGMMEGEGKGPLLRSQSTSEQEKRLTWPRRSYSPRSFEDCGGGYTPDCSSNENLTSSEEDFSSGQSSRVSPSPTTYRMFRDKSRSPSQNSQQSFDSSSPPTPQCHKRHRHCPVVVSEATIVGVRKTGQIWPNDGEGAFHGDADGSFGTPPGYGCAADRAEEQRRHQDGLPYIDDSPSSSPHLSSKGRGSRDALVSGALESTKASELDLEKGLEMRKWVLSGILASEETYLSHLEALLLPMKPLKAAATTSQPVLTSQQIETIFFKVPELYEIHKEFYDGLFPRVQQWSHQQRVGDLFQKLASQLGVYRAFVDNYGVAMEMAEKCCQANAQFAEISENLRARSNKDAKDPTTKNSLETLLYKPVDRVTRSTLVLHDLLKHTPASHPDHPLLQDALRISQNFLSSINEEITPRRQSMTVKKGEHRQLLKDSFMVELVEGARKLRHVFLFTDLLLCTKLKKQSGGKTQQYDCKWYIPLTDLSFQMVDELEAVPNIPLVPDEELDALKIKISQIKNDIQREKRANKGSKATERLKKKLSEQESLLLLMSPSMAFRVHSRNGKSYTFLISSDYERAEWRENIREQQKKCFRSFSLTSVELQMLTNSCVKLQTVHSIPLTINKEDDESPGLYGFLNVIVHSATGFKQSSNLYCTLEVDSFGYFVNKAKTRVYRDTAEPNWNEEFEIELEGSQTLRILCYEKCYNKTKIPKEDGESTDRLMGKGQVQLDPQALQDRDWQRTVIAMNGIEVKLSVKFNSREFSLKRMPSRKQTGVFGVKIAVVTKRERSKVPYIVRQCVEEIERRGMEEVGIYRVSGVATDIQALKAAFDVNNKDVSVMMSEMDVNAIAGTLKLYFRELPEPLFTDEFYPNFAEGIALSDPVAKESCMLNLLLSLPEANLLTFLFLLDHLKRVAEKEAVNKMSLHNLATVFGPTLLRPSEKESKLPANPSQPITMTDSWSLEVMSQVQVLLYFLQLEAIPAPDSKRQSILFSTEV",Bcr-Abl transformation,[7],inhibit Bcr-Abl transformation
"Bcr1-72: Recombinant wild-type polypeptide, residues 1-72 of the N-terminus of human Bcr (oligomerization domain) (protein, UniProt P11274 1-72, looked up, fragment) MVDPVGFAEAWKAQFPDSEPPRMELRSVGDIEQELERCKASIRRLEQEVNQERFRMIYLQTLLAKEKKSYDR",midpoint of thermal denaturation (Tm),[2],84 °C
